Substitutions are numbered along the chain they refer to.
T1: recombinant human CD25 (rhCD25), NS/0-expressed recombinant protein from R&D Systems (cat#223-2A/CF) (human, UniProt P01589 22-213, limits assumed)
T1 construct: Coated on ELISA plates, and amine-coupled to a CM-5 chip for SPR; also called hrCD25; soluble CD25
T1 sequence (looked up): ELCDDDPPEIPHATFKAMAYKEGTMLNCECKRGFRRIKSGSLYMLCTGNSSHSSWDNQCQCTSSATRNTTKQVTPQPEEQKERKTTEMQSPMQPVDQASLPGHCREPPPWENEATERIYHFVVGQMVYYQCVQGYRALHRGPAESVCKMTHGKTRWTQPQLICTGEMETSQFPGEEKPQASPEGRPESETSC

B1: human monoclonal antibody AB1 (antibody, human IgG1, V domains shown)
VH: QVQLVQSGAEVKKPGSSVKVSCKASGGTFSRYPINWVRQAPGQGLEWMGRIIPILGIADYAQRFQGRVTITADKSTNTAYMELSSLRSEDTAVYYCARRDWGDYWGQGTLVTVSS
VL: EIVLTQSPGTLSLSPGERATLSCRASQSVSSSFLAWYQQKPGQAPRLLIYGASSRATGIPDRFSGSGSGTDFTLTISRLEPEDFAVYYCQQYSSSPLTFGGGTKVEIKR
notes: Human IgG1,kappa from a hybridoma (HuMAb mouse)
B2: human monoclonal antibody AB7 (antibody, V domains shown)
VH: B1 VH with P33A, G56D, R63K, G66D, R99K, G102F, Y104P
VL: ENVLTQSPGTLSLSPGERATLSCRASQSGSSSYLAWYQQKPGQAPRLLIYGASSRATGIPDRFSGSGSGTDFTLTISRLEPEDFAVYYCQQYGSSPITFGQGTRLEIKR
notes: as for B1
B3: human monoclonal antibody AB12 (antibody, V domains shown)
VH: B1 VH with P33I, I57V, A58E, D59N, R63K, N77S, R99K, G102F
VL: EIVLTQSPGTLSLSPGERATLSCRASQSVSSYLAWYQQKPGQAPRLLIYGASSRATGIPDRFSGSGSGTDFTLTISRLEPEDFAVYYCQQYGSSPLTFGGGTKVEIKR
notes: Human IgG1,kappa from a hybridoma (HuMAb mouse); also called AB12-FITC; FITC-labeled AB12
B4: human monoclonal antibody AB11 (antibody, human IgG1, V domains shown)
VH: B1 VH with S75F
VL: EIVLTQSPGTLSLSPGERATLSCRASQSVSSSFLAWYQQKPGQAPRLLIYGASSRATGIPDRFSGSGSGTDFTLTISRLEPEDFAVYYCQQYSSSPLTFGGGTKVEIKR
notes: as for B1

What was measured:
[1] = target: T1, recombinant human CD25 (rhCD25), …; test: competition ELISA on coated rhCD25 (100 ng/ml); antibody supernatant added 10 min before rIL-2-biotin (50 ng/ml); streptavidin-poly-HRP/ABTS, OD405; blocked ligand: biotinylated IL-2
Description: After washing (3×) the plates with PBST, 100 μl of sample antibody (concentration range: 10, 33, and 100 ng/ml) was added. […] After washing the plates 3× (in PBST), plates were incubated with streptavidin-poly-HRP (dilute 1:10,000 from stock) in PBS, and 100 μl was added to each well (1 hour, RT). After washing the plates (3× in PBST), 10 mg ABTS (Roche) per 10 ml ABTS buffer (Roche) was made and 100 μl added to each well.

[2] = target: T1, recombinant human CD25 (rhCD25), …; test: SPR, BIAcore 3000, 25 C; rhCD25 amine-coupled to CM-5 chip at low density, antibody as analyte, 1:1 Langmuir model
Description: Affinity analyses were assessed by monitoring changes in surface plasmon resonance using a BIAcore 3000 instrument. A BIAcore 3000 and BIAcore 3000 software control (BIAcore, Uppsala, Sweden, lot#BR-1100-43) was used. […] After blocking the residual binding sites of the activated sensor chip using ethanol-amine-HCl, a kinetic analysis was performed at 25° C. […] The results were visualized using a BIAcore 3000 (Bio-tek Instruments) and analyzed using the BIAevaluation Software 3.1 (BIAcore, Uppsala, Sweden) and Languir binding 1:1 was used as pre-fixed model.

Binder | binding result [1] | Kd [2] [nM]
B1 | binds | –
B2 | binds | –
B3 | – | 0.0474
B4 | binds | –

— US20090081219A1 (Genmab, published 2009)
